The text below walks through data of patent US9074002B2, “PTP1B inhibitors” (Cold Spring Harbor Laboratory, priority 2009, dated 2015).

Assay [1] has as its target T1, PTP1B-OX (purified recombinant 37 kDa PTP1B, reversibly oxidized with H2O2) (human, UniProt P18031 1-321, catalytic Cys 215 reversibly oxidized by H2O2 (cyclic sulphenamide form)).
T1 construct: also called PTP1B-SN
T1 sequence: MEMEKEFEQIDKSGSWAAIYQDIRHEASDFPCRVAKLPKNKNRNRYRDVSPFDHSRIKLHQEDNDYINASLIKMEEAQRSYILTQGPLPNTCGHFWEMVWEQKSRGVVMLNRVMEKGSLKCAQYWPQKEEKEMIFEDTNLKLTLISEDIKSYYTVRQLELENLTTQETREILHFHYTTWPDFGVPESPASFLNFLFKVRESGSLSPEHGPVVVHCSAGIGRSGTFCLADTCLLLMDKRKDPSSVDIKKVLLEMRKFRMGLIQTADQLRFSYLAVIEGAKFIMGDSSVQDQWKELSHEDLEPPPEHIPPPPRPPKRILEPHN
Kind of assay: in vitro Ni-NTA pull-down of purified scFv with purified PTP1B-OX, immunoblot. The protocol: (§1) In the in vitro binding assay, purified PTP was reversibly oxidized with […] followed by a quick buffer exchange to remove H_2O_2 (FIG. 8). Purified scFv was incubated in molar excess with PTP1B-OX or with PTP under reducing condition (with 2 mM TCEP) in binding buffer (20 mM HEPES, pH 7.4, 300 mM NaCl, 0.05% BSA, 0.05% Tween-20 and 10 mM imidazole) for 2 hours at 4° C. Ni-NTA agarose was added and incubated for one hour at 4° C. Protein complex bound to Ni-NTA agarose beads was pulled down and washed (three times, 5 minutes each, at 4° C.) with binding buffer containing 20 mM imidazole to reduce non-specific binding to the beads. The protein complex was eluted from the Ni-NTA agarose beads with 500 mM imidazole (in binding buffer, pH 7.4) for 15 minutes at 4° C. with gentle shaking. The complex was separated by SDS-PAGE and PTP1B was detected with anti-PTP1B antibody (FG6) and scFv was detected with anti-HA antibody [anti-HA (3F10)-HRP, Roche] by immunoblotting. Eight different scFvs (scFvs 20, 21, 24, 28, 45, 48, 57, and 105), expressed and purified from bacterial cultures were tested by this in vitro binding experiment.
In general terms: Immunoblotting shows a protein as a band on a membrane.

Assay [2] addresses T2, PTP1B under reducing condition (purified recombinant 37 kDa wild type PTP1B, with TCEP) (human, UniProt P18031 1-321).
T2 construct: Same protein as m1 but kept reduced (2 mM TCEP); also called reduced, active PTP1B
T2 sequence: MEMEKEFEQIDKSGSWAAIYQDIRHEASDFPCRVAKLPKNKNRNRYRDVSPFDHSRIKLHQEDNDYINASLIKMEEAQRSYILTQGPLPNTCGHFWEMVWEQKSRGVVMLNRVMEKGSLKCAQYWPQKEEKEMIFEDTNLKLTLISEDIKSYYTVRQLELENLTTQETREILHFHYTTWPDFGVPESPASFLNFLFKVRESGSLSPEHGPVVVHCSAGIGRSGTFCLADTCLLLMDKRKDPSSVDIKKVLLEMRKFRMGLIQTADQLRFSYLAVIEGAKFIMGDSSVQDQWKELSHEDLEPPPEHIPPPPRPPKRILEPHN
As to the kind of experiment: in vitro Ni-NTA pull-down of purified scFv with purified PTP1B in 2 mM TCEP, immunoblot. On the procedure:
as §1

B1: scFv48 (scFv)
scFv: LTQPSSVSANPGETVKITCSEGGRSSYYGWYQQKAPGSAPVTVIYDSSSRPSDIPSRFSGSKSGSTGTLTITGVQAEDEAVYYCGSTDSSTSAAIFGAGTTLTVLGQSSRSSTVTLDESGGGLQTPGRALSLVCKASGFTFSSFNMGWVRQAPGKGLEYVASISSSGSYTAYGSAVKGRATISRDNGQSTVRLQLNNLRAEDTATYYCAKAAGSAYYYTAVTPAFAGSIDAWGHGTEVIVSSTSGQAGQHHHHHHGAYPYDVPDYAS
Turning to B1, the binding result in assay [1] and in assay [2] was “no binding” throughout.

B2: scFv20 (scFv)
scFv: LTQPSSVSANLGGIVEITCSGSSGSYGWYQQKSPGSAPVTVIYYNDKRPSNIPSRFSGSGSGSTNTLTIAGVRAEDEAVYYCGNEDSSGAAFGAGTTLTVLGQSSRSSAVTLDESGGGLQTPGGGLSLVCKASGFTFSDYDMFWVRQAPSKGLEFVAAITSSGTGTKYGAAVKGRATISKDNGQRTVRLQLNSLGAEDTGTYYCARSDADSTTWSAGEIDAWGHGTEVIVSSTSGQAGQHHHHHHGAYPYDVPDYAS
As to B2, the binding result in assay [1] and in assay [2] was “no binding” in each case.

B3: scFv21 (scFv)
scFv: LTQPSSVSANPGGTVKITCSGSSGSYYGWYQQKSPGSAPVTVIYDNDKRPSDVPSRFSGSKSGPTATLTITGVQAEDEAVYFCGSRDNSYVGIFGAGTTLTVLGQSSRSSAVTLDESGGGLQTPGGALSLVCKASGFTFSSYDMFWVRQAPGKGLEFVAQINSAGSYTNYGSAVKGRATISRDDGQSTVRLQLNNLRAEDTGIYFCAKSASGYYYSGSDAGDIDAWGHGTEVIVSSTSGQAGQHHHHHHGAYPYDVPDYAS
For the molecule B3, the binding result in assay [1] and in assay [2] was “no binding” each time.
